Experiment [1] has as its target human TLR2 (hTLR2) (human) (UniProt O60603). As to the kind of experiment: T7 phage display biopanning, 4 rounds, on 293.hTLR2 cells after negative panning on parental HEK293; percent of 109 sequenced clones.
The target in experiment [2] is T1, TLR2 (Homo sapiens, UniProt O60603). The settings on record: cited from earlier work.
Target sequence in this assay (O60603 21-784, species assumed): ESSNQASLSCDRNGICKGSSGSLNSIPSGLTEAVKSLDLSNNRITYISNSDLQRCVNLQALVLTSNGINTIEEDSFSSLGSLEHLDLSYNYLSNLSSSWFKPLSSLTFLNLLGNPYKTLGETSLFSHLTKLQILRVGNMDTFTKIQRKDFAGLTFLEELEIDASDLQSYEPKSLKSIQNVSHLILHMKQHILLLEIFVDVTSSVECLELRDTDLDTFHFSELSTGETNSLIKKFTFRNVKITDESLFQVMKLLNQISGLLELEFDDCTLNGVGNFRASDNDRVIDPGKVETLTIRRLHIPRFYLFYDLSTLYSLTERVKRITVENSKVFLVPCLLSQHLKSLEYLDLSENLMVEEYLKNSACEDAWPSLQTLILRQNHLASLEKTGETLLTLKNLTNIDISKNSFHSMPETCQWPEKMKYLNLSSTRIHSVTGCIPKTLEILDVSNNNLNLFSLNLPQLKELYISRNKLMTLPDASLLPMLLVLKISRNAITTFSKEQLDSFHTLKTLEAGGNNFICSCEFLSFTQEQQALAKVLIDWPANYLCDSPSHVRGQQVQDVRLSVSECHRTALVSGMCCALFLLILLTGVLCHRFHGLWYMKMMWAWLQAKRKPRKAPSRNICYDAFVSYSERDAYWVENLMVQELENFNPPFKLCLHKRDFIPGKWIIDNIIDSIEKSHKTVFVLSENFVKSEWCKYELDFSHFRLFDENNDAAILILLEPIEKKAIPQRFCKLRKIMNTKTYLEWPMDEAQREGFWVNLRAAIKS
Experiment [3] concerns the target T1, TLR2. Put plainly: NF-κB-dependent luciferase reporter assay, parental 293 vs 293.hTLR2 cells. It is filed as cell-based. Details: host or cells: HEK293 (293.luc, stably carrying κB-LUC reporter). The note with it: 293.hTLR2 vs parental 293 cells, four to five hours at 37° C. As for the experimental part:
NF-κB-dependent luciferase reporter assay: Parental 293 cells and 293.hTLR2 cells (see Example 1, above) were incubated with an aliquot of test peptide four to five hours at 37° C. NF-κB-dependent luciferase activity was measured using the Steady-Glo Luciferase Assay System by Promega (E2510), following the manufacturer's instructions. Luminescence was measured on a microplate luminometer (FARCyte, Amersham) and expressed as relative luminescence units (RLU) after subtracting the background reading obtained by exposing cells to the DMEM medium alone.
The biological activity of the TLR2-binding peptides isolated by the screening method was confirmed using the isolated peptides in an NF-κB-dependent reporter gene assay. For this assay, a synthetic monomer of the DPDSG motif (SEQ ID NO: 5), or a concatemerized copy (DPDSG)5, was incubated on parental HEK293 cells containing an NF-κB-dependent luciferase reporter construct (293) and on TLR2-overexpressing HEK293 cells containing an NF-κB-dependent luciferase reporter construct (293.hTLR2, see Example 1, above). Luciferase activity was then measured. […] Thus, the TLR2-binding peptides identified by the screening assay are functional peptide TLR2 ligands.
Target sequence in this assay (O60603 21-784): as the sequence (O60603 21-784, species assumed) above

Sequence of human TLR2 (hTLR2) (human) (O60603 21-784 limits assumed): as the sequence (O60603 21-784, species assumed) above

Regarding LRQGR (T7 phage-displayed peptide), in experiment [1], the % ABUNDANCE was 0.9%.
On the same count and under the same terms, as for KYMPH (T7 phage-displayed peptide), the figure is 0.9%; as for NPPTT (T7 phage-displayed peptide), 0.92%.
On the same count and under the same terms, for VSEGV (T7 phage-displayed peptide) the value was 3.67%; for AGCFS (T7 phage-displayed peptide), 0.92%.
For the substance ALTTE, the “activation of monocytes and epithelial cells via TLR2 signaling” value at TLR2 [2] is “activate monocytes and epithelial cells via TLR2 signaling”.
As to IGRFR (T7 phage-displayed peptide), the % ABUNDANCE in experiment [1] turned out to be 2.7%.
Still for that read-out and setting: for MGTLP (T7 phage-displayed peptide) the value was 1.8%; for RGGF (T7 phage-displayed peptide), 0.92%.
On the same count and under the same terms, as for RVVAP (T7 phage-displayed peptide), the figure is 0.9%; as for GGKLS (T7 phage-displayed peptide), 0.92%.
On the same count and under the same terms, as for THKPK (T7 phage-displayed peptide), the figure is 0.9%; as for GPLLH (T7 phage-displayed peptide), 0.9%.
Take IMRHP (T7 phage-displayed peptide): in experiment [1], the % ABUNDANCE was 0.92%.
Same read-out and setting: for MFGVP (T7 phage-displayed peptide) the value was 0.9%; for VGKND (T7 phage-displayed peptide), 0.9%; for SRHGR (T7 phage-displayed peptide), 0.92%.
Same read-out and setting: for IHVVP (T7 phage-displayed peptide) the value was 0.9%.
As to IMWFP (T7 phage-displayed peptide), the % ABUNDANCE in experiment [1] worked out at 0.9%.
Same read-out and setting: as for RGGSK (T7 phage-displayed peptide), the figure is 3.67%.
Still for that read-out and setting: as for KGWF (T7 phage-displayed peptide), the figure is 0.9%.
Same read-out and setting: for ACGVY (T7 phage-displayed peptide) the value was 0.92%; for ADTHQ (T7 phage-displayed peptide), 0.9%.
MISS (T7 phage-displayed peptide): in experiment [1], the % ABUNDANCE came to 0.92%.
Same read-out and setting: for CGPKL (T7 phage-displayed peptide) the value was 0.92%; for MRRIL (T7 phage-displayed peptide), 0.92%; for IYKLA (T7 phage-displayed peptide), 0.9%.
Still for that read-out and setting: for NRTVF (T7 phage-displayed peptide) the value was 0.92%; for HLLPG (T7 phage-displayed peptide), 0.9%.
On the same count and under the same terms, for PESGV (T7 phage-displayed peptide) the value was 0.92%; for FCGLG (T7 phage-displayed peptide), 0.92%; for AWAGT (T7 phage-displayed peptide), 0.9%.
As for SHIAL (T7 phage-displayed peptide), the % ABUNDANCE in experiment [1] is 0.9%.
For the substance NRFGL (T7 phage-displayed peptide), the % ABUNDANCE in experiment [1] turned out to be 0.92%.
Regarding AVRLS (T7 phage-displayed peptide), the % ABUNDANCE in experiment [1] came out at 0.92%.
The same measure, in the same setting: as for NYRRW (T7 phage-displayed peptide), the figure is 0.9%.
Still for that read-out and setting: as for EVCAP (T7 phage-displayed peptide), the figure is 0.92%.
On to “(DPDSG)5: concatemerized copy of the DPDSG motif, made by solid phase synthesis (DPDSGDPDSGDPDSGDPDSGDPDSG)”, for which, in the experiment with TLR2 [3], the “luciferase reporter gene expression” value is “activated luciferase reporter gene expression in a TLR2-dependent manner”.
As for SGGLF (T7 phage-displayed peptide), in experiment [1], the % ABUNDANCE was 0.92%.
Regarding KCQSF (T7 phage-displayed peptide), the % ABUNDANCE in experiment [1] turned out to be 0.92%.
As for “DPDSG: peptide TLR2 ligand from phage display; also made as synthetic monomer”, the “luciferase reporter gene expression” value in the experiment with TLR2 [3] was “activated luciferase reporter gene expression in a TLR2-dependent manner”.
For CVWLQ (T7 phage-displayed peptide), in experiment [1], the % ABUNDANCE came out at 0.9%.

(Values after patent US20090028889A1, “Novel Polypeptide Ligands For Toll-Like Receptor 2 (TLR2)” (VAXINNATE CORPORATION, priority 2005, published 2009).)
